Assay results as given in PMC4809751.

Target: ZbmA, the zorbamycin (ZBM)-binding protein of Streptomyces flavoviridis ATCC21892 (unmodified, as cocrystallised with Cu(II)-ZBM) (Streptomyces flavoviridis ATCC21892)
Test: crystal structure

stoichiometry N: 2
Substance: ZbmA, the zorbamycin (ZBM)-binding protein of Streptomyces flavoviridis ATCC21892 (unmodified, as cocrystallised with Cu(II)-ZBM) (natural protein)
